Source: publication doi:10.1101/370411

Biological target: Porcine circovirus 2 (PCV2) virus like particle, Baculovirus expressed capsid protein (Porcine circovirus 2)
Test: cryo-EM structure

Porcine circovirus 2 (PCV2) virus like particle, Baculovirus expressed capsid protein (natural protein)
stoichiometry N: 60
